Measurements from publication doi:10.1101/2021.08.17.456705 (bioRxiv, 2021).

Target: the molecule itself
Assay: SEC + native gel or EMSA

B1: Cu, Zn superoxide dismutase 1 (SOD1) F20L-H46Q, de-metallated (enzyme)
chain: not shown
  stoichiometry N: 3

B2: Cu, Zn superoxide dismutase 1 (SOD1) H46Q-G108H, de-metallated (enzyme)
chain: not shown
  stoichiometry N: 3
